Assay results from PMC6811539, “Minute-scale persistence of a GPCR conformation state triggered by non-cognate G protein interactions primes signaling” (Nature Communications, 2019).

Target: β2-AR of the β2-AR-Sp SPASM sensor (human) (UniProt P07550)

critical concentration (CC) of unlabeled peptide for enhanced isoproterenol-stimulated ΔFRET of the β2-AR-Sp sensor in native membranes (peptide 100 nM to 100 μM): 1.5 µM
Substance: Sp (Gαs C terminus peptide)
